Results as given in patent EP4660201A1 (dated 2025).
One block for each binder: values may come before it.

How the values were obtained:
[1] = target: KRAS G12V 7-16 epitope peptide … presented by HLA-A*11:01 (human); assay: cell-based or functional assay
[2] = target: T1, KRAS G12V 7-16, P6I peptide on HLA-A*11:01 (human); assay: cytokine release
T1 peptide: VVVGAIGVGK

[3] = target: T2, KRAS G12V 7-16, P6L peptide on HLA-A*11:01 (human); assay: cytokine release
T2 peptide: VVVGALGVGK

[4] = target: T3, KRAS G12V 7-16, P7A peptide on HLA-A*11:01 (human); assay: cytokine release
T3 peptide: VVVGAVAVGK

[5] = target: T4, KRAS G12V 7-16, P7Q peptide on HLA-A*11:01 (human); assay: cytokine release
T4 peptide: VVVGAVQVGK

[6] = target: T5, KRAS G12V 7-16, P8C peptide on HLA-A*11:01 (human); assay: cytokine release
T5 peptide: VVVGAVGCGK

[7] = target: T6, KRAS G12V 7-16, P8I peptide on HLA-A*11:01 (human); assay: cytokine release
T6 peptide: VVVGAVGIGK

[8] = target: T7, KRAS G12V 7-16, P8T peptide on HLA-A*11:01 (human); assay: cytokine release
T7 peptide: VVVGAVGTGK

[9] = target: T8, KRAS G12V 7-16, P1T peptide on HLA-A*11:01 (human); assay: cytokine release
T8 peptide: TVVGAVGVGK

[10] = target: T9, KRAS G12V 7-16, P2I peptide on HLA-A*11:01 (human); assay: cytokine release
T9 peptide: VIVGAVGVGK

[11] = target: T10, KRAS G12V 7-16, P3A peptide on HLA-A*11:01 (human); assay: cytokine release
T10 peptide: VVAGAVGVGK

[12] = target: T11, KRAS G12V 7-16, P3G peptide on HLA-A*11:01 (human); assay: cytokine release
T11 peptide: VVGGAVGVGK

[13] = target: T12, KRAS G12V 7-16, P3I peptide on HLA-A*11:01 (human); assay: cytokine release
T12 peptide: VVIGAVGVGK

[14] = target: T13, KRAS G12V 7-16, P5C peptide on HLA-A*11:01 (human); assay: cytokine release
T13 peptide: VVVGCVGVGK

[15] = target: T14, KRAS G12V 7-16, P5S peptide on HLA-A*11:01 (human); assay: cytokine release
T14 peptide: VVVGSVGVGK

[16] = target: T15, KRAS G12V peptide on HLA-A*11:01 (human); assay: IFN-gamma ELISA; TCR-T cells with T2KO-A1101 cells loaded with 1e-5 to 1e-11 M peptide, E:T 1:1, 20 h; Figure 6C; full-length, on cells
T15 peptide: VVVGAVGVGK

[17] = target: T15, KRAS G12V peptide on HLA-A*11:01; assay: NFAT-GFP reporter in Jurkat (endogenous TCR knocked out); T2 cells loaded with 1e-5 to 1e-9 M target antigen peptide; full-length, on cells
[18] = target: T15, KRAS G12V peptide on HLA-A*11:01; assay: luciferase killing assay; TCR-T cells with T2KO-A1101 cells loaded with 1e-5 to 1e-11 M peptide, E:T 9:1, 20 h; Figure 5C; full-length, on cells
[19] = target: KRAS G12D 7-16 epitope peptide … presented by HLA-A*11:01 (human); assay: cell-based or functional assay
[20] = target: T16, KRAS G12D peptide on HLA-A*11:01 (human); assay: IFN-gamma ELISA; TCR-T cells with T2KO-A1101 cells loaded with 1e-5 to 1e-11 M peptide, E:T 1:1, 20 h; Figure 6D; full-length, on cells
T16 peptide: VVVGADGVGK

[21] = target: T16, KRAS G12D peptide on HLA-A*11:01; assay: NFAT-GFP reporter in Jurkat (endogenous TCR knocked out); T2 cells loaded with 1e-5 to 1e-9 M target antigen peptide; full-length, on cells
[22] = target: T17, KRAS G12V 7-16, P5T peptide on HLA-A*11:01 (human); assay: cytokine release
T17 peptide: VVVGTVGVGK

[23] = target: T18, KRAS G12V 7-16, P5V peptide on HLA-A*11:01 (human); assay: cytokine release
T18 peptide: VVVGVVGVGK

[24] = target: T19, KRAS G12V 7-16, P8F peptide on HLA-A*11:01 (human); assay: cytokine release
T19 peptide: VVVGAVGFGK

[25] = target: T20, KRAS G12V 7-16, P8G peptide on HLA-A*11:01 (human); assay: cytokine release
T20 peptide: VVVGAVGGGK

[26] = target: T21, KRAS G12V 7-16, P8L peptide on HLA-A*11:01 (human); assay: cytokine release
T21 peptide: VVVGAVGLGK

[27] = target: T22, KRAS G12V 7-16, P9A peptide on HLA-A*11:01 (human); assay: cytokine release
T22 peptide: VVVGAVGVAK

[28] = target: T23, KRAS G12V 7-16, P9D peptide on HLA-A*11:01 (human); assay: cytokine release
T23 peptide: VVVGAVGVDK

[29] = target: T24, KRAS G12V 7-16, P9N peptide on HLA-A*11:01 (human); assay: cytokine release
T24 peptide: VVVGAVGVNK

[30] = target: T25, KRAS G12V 7-16, P9Q peptide on HLA-A*11:01 (human); assay: cytokine release
T25 peptide: VVVGAVGVQK

[31] = target: T26, KRAS G12V 7-16, P9S peptide on HLA-A*11:01 (human); assay: cytokine release
T26 peptide: VVVGAVGVSK

[32] = target: T27, KRAS G12V 7-16, P3C peptide on HLA-A*11:01 (human); assay: cytokine release
T27 peptide: VVCGAVGVGK

[33] = target: T28, KRAS G12V 7-16, P3E peptide on HLA-A*11:01 (human); assay: cytokine release
T28 peptide: VVEGAVGVGK

[34] = target: T29, KRAS G12V 7-16, P3M peptide on HLA-A*11:01 (human); assay: cytokine release
T29 peptide: VVMGAVGVGK

[35] = target: T30, KRAS G12V 7-16, P3Q peptide on HLA-A*11:01 (human); assay: cytokine release
T30 peptide: VVQGAVGVGK

[36] = target: T31, KRAS G12V 7-16, P3S peptide on HLA-A*11:01 (human); assay: cytokine release
T31 peptide: VVSGAVGVGK

[37] = target: T32, KRAS G12V 7-16, P1A peptide on HLA-A*11:01 (human); assay: cytokine release
T32 peptide: AVVGAVGVGK

[38] = target: T33, KRAS G12V 7-16, P5P peptide on HLA-A*11:01 (human); assay: cytokine release
T33 peptide: VVVGPVGVGK

- EC50 of IFN-γ secretion with peptide-loaded T2KO-A1101 cells (ELISA, E:T 1:1, 20 hours) [1]: 22 nM
- EC50 of NFAT-GFP reporter activation, TCR in Jurkat-NFAT cells with peptide-loaded T2 cells [1]: 28.9 nM
- binding result [2]: recognises
- binding result [3]: recognises
- binding result [4]: recognises
- binding result [5]: recognises
- binding result [6]: recognises
- binding result [7]: recognises
- binding result [8]: recognises
- binding result [9]: recognises
- binding result [10]: recognises
- binding result [11]: recognises
- binding result [12]: recognises
- binding result [13]: recognises
- binding result [14]: recognises
- binding result [15]: recognises
- EC50 of peptide [16]: 22 nM
- EC50 of peptide [17]: 28.9 nM
B1: KVA11-N04 (TCR, V domains shown)
Valpha: GESVGLHLPTLGVQEGDNSIINCAYSNSASDYFIWYKQESGKGPQFIIDIRSNMDKRQGQRVTVLLNKTVKHLSLQIAATQPGDSAVYFCAENSDGTSYGKLTFGQGTILTVHP
Vbeta: EAGVAQSPRYKIIEKRQSVAFWCNPISGHATLYWYQQILGQGPKLLIQFQNNGVVDDSQLPKDRFSAERLKGVDSTLKIQPAKLEDSAVYLCASSLVGSPDYEQYFGPGTRLTVT
- EC50 of killing of peptide-loaded T2KO-A1101 cells (luciferase, E:T 9:1, 20 hours) [1]: 0.973 nM
- EC50 of peptide [18]: 0.973 nM

- EC50 of IFN-γ secretion with peptide-loaded T2KO-A1101 cells (ELISA, E:T 1:1, 20 hours) [19]: 49.6 nM
- EC50 of NFAT-GFP reporter activation, TCR in Jurkat-NFAT cells with peptide-loaded T2 cells [19]: 76.5 nM
- EC50 of peptide [20]: 49.6 nM
- EC50 of peptide [21]: 76.5 nM
B2: KDA11-N01 (TCR, V domains shown)
Valpha: QKEVEQNSGPLSVPEGAIASLNCTYSDRGSQSFFWYRQYSGKSPELIMSIYSNGDKEDGRFTAQLNKASQYVSLLIRDSQPSDSATYLCAVNLGAAGNKLTFGGGTRVLVKP
Vbeta: EAGVAQSPRYKIIEKRQSVAFWCNPISGHATLYWYQQILGQGPKLLIQFQNNGVVDDSQLPKDRFSAERLKGVDSTLKIQPAKLEDSAVYLCASSFSDSYNSPLHFGNGTRLTVT

- binding result [22]: recognises
- binding result [23]: recognises
- binding result [2]: recognises
- binding result [24]: recognises
- binding result [25]: recognises
- binding result [7]: recognises
- binding result [26]: recognises
- binding result [27]: recognises
- binding result [28]: recognises
- binding result [29]: recognises
- binding result [30]: recognises
- binding result [31]: recognises
- binding result [10]: recognises
- binding result [11]: recognises
- binding result [32]: recognises
- binding result [33]: recognises
- binding result [12]: recognises
- binding result [13]: recognises
- binding result [34]: recognises
- binding result [35]: recognises
- binding result [36]: recognises
- binding result [14]: recognises
- binding result [37]: recognises
- binding result [38]: recognises
- binding result [15]: recognises
B3: KVA11-N02 (TCR, V domains shown)
Valpha: AQSVAQPEDQVNVAEGNPLTVKCTYSVSGNPYLFWYVQYPNRGLQFLLKYITGDNLVKGSYGFEAEFNKSQTSFHLKKPSALVSDSALYFCAVRDIEGAGNNRKLIWGLGTSLAVNP
Vbeta: DAGVIQSPRHEVTEMGQEVTLRCKPISGHNSLFWYRQTMMRGLELLIYFNNNVPIDDSGMPEDRFSAKMPNASFSTLKIQPSEPRDSAVYFCASSEGFYTEAFFGQGTRLTVV
